From paper PMC9482650, “Quantitative fragmentomics allow affinity mapping of interactomes” (Nature Communications, 2022)

T1: APBA1_2, Q02410
T1 sequence (Q02410 742-832, limits assumed, looked up): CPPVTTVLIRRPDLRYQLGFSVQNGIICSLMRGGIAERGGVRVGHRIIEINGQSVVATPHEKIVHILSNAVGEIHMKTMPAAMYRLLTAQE

T2: APBA2_1, Q99767
T2 sequence (Q99767 563-664, limits assumed, looked up): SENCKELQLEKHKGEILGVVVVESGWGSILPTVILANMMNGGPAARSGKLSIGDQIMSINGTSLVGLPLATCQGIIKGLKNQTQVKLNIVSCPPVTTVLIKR

T3: ARHGEF11, O15085
T3 sequence (O15085 42-136, limits assumed, looked up): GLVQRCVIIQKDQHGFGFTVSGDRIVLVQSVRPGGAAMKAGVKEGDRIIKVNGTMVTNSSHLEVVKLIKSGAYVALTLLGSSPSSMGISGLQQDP

T4: DLG3_1, Q92796
T4 sequence (Q92796 125-227, limits assumed, looked up): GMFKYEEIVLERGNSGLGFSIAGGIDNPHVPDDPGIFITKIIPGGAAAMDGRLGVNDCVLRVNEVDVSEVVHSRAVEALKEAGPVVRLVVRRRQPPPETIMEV

T5: LIN7A, O14910
T5 sequence (O14910 103-200, limits assumed, looked up): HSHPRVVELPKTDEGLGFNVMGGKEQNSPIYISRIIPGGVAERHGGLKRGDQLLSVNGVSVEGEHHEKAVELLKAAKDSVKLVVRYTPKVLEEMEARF

T6: LIN7C, Q9NUP9
T6 sequence (Q9NUP9 88-185, limits assumed, looked up): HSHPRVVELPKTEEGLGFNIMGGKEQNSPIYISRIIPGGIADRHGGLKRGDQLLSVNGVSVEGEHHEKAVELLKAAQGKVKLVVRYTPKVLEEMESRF

T7: PARD3B_1, Q8TEW8
T7 sequence (Q8TEW8 196-299, limits assumed, looked up): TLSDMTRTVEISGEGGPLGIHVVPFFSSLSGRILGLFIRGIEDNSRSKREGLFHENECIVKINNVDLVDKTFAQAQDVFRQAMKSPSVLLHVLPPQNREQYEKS

T8: PCLO, Q9Y6V0
T8 sequence (Q9Y6V0 4491-4600, limits assumed, looked up): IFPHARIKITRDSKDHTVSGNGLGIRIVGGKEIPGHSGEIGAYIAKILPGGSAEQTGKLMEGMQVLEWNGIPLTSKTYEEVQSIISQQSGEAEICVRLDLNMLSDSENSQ

T9: RAPGEF6, Q8TEU7
T9 sequence (Q8TEU7 525-625, limits assumed, looked up): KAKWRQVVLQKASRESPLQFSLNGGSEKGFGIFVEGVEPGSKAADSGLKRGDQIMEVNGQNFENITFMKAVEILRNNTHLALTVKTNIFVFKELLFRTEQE

T10: SNTG2, Q9NY99
T10 sequence (Q9NY99 68-166, limits assumed, looked up): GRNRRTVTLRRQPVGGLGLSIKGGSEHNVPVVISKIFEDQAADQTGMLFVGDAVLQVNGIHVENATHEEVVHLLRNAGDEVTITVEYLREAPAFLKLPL

T11: TX1BP3, O14907
T11 sequence (O14907 10-122, limits assumed, looked up): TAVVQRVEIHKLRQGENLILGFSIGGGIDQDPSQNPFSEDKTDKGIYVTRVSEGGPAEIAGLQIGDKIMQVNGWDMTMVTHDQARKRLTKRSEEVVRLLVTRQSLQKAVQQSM


Tests used:
Experiment in all cases: holdup assay
Parameters in all cases: key: below the threshold = too weak to quantify, mostly under pKd 3.1 to 4
Details in all cases: plain residues with an end cap or a label only (N-terminal biotin on a linker: ado-ado)
[1] = target: AHNAK1, Q09666
[2] = target: T1, APBA1_2, Q02410
[3] = target: T2, APBA2_1, Q99767
[4] = target: T3, ARHGEF11, O15085
[5] = target: DLG1_2, Q12959
[6] = target: DLG2_3, Q15700
[7] = target: T4, DLG3_1, Q92796
[8] = target: DLG5_1, Q8TDM6
[9] = target: FRMPD2_3, Q68DX3
[10] = target: FRMPD3, Q5JV73
[11] = target: GRASP, Q7Z6J2
[12] = target: GRIP2_7, Q9C0E4
[13] = target: HTRA2, O43464
[14] = target: Inadl_10, Q8NI35
[15] = target: Inadl_9, Q8NI35
[16] = target: LIMK2, P53671
[17] = target: T5, LIN7A, O14910
[18] = target: T6, LIN7C, Q9NUP9
[19] = target: LNX1_1, Q8TBB1
[20] = target: LNX1_2, Q8TBB1
[21] = target: MAGI2_6, Q86UL8
[22] = target: MAGI3_2, Q5TCQ9
[23] = target: T7, PARD3B_1, Q8TEW8
[24] = target: T8, PCLO, Q9Y6V0
[25] = target: T9, RAPGEF6, Q8TEU7
[26] = target: T10, SNTG2, Q9NY99
[27] = target: T11, TX1BP3, O14907

Chain of LIMK2, P53671 (P53671 143-248): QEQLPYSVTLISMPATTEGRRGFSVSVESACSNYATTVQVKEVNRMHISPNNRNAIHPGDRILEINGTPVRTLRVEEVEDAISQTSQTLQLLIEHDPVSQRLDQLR
Chain of FRMPD3, Q5JV73 (Q5JV73 12-100): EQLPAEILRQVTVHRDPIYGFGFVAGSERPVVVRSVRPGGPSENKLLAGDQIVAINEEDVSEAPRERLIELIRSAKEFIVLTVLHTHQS
Chain of DLG1_2, Q12959 (Q12959 314-412): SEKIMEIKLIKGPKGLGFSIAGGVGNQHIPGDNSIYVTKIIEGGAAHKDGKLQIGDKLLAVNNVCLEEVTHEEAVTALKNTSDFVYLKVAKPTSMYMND
Chain of GRIP2_7, Q9C0E4 (Q9C0E4 934-1023): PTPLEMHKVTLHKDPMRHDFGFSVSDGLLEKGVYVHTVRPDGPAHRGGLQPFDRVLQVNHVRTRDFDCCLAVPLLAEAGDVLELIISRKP
Chain of HTRA2, O43464 (O43464 355-458): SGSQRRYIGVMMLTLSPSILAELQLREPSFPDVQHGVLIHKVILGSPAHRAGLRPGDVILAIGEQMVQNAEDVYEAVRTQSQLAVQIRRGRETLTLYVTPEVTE
Chain of LNX1_1, Q8TBB1 (Q8TBB1 261-371): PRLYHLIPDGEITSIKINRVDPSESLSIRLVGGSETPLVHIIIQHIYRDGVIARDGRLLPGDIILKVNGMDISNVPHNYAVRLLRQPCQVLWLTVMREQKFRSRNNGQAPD
Chain of DLG5_1, Q8TDM6 (Q8TDM6 617-713): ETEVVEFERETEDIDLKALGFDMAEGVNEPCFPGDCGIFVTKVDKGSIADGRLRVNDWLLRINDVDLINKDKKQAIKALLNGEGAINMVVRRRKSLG
Chain of MAGI2_6, Q86UL8 (Q86UL8 1141-1229): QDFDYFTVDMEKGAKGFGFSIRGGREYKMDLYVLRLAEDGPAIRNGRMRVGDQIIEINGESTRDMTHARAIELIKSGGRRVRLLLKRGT
Chain of FRMPD2_3, Q68DX3 (Q68DX3 1073-1166): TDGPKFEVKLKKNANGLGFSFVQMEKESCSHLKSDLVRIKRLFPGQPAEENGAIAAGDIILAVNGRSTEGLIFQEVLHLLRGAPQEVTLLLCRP
Chain of MAGI3_2, Q5TCQ9 (Q5TCQ9 398-503): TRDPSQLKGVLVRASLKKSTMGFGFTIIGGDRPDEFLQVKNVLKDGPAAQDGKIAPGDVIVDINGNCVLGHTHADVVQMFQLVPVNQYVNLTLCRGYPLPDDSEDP
Chain of LNX1_2, Q8TBB1 (Q8TBB1 371-470): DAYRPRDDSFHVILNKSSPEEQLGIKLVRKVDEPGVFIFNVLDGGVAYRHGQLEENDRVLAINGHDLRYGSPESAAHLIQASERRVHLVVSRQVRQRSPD
Chain of Inadl_9, Q8NI35 (Q8NI35 1530-1615): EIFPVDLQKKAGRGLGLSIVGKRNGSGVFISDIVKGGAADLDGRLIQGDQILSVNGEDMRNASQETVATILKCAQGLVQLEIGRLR
Chain of AHNAK1, Q09666 (Q09666 4-100): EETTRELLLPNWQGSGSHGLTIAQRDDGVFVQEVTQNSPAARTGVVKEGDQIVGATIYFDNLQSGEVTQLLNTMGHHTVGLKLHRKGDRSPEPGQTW
Chain of Inadl_10, Q8NI35 (Q8NI35 1673-1763): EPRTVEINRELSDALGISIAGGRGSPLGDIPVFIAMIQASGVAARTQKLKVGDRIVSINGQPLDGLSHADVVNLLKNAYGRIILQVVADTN
Chain of GRASP, Q7Z6J2 (Q7Z6J2 96-193): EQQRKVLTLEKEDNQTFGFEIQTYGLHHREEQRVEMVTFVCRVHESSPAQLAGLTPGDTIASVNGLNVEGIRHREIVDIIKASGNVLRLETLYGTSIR

Binder | pKd [1] | pKd [2] | pKd [3] | pKd [4] | pKd [5] | pKd [6] | pKd [7] | pKd [8] | pKd [9] | pKd [10] | pKd [11] | pKd [12] | pKd [13] | pKd [14] | pKd [15] | pKd [16] | pKd [17] | pKd [18] | pKd [19] | pKd [20] | other results
RHGSCVETSL [TMEM151B, Q8IW70] | below the threshold | 3.97 | below the threshold | 4.41 | 4.88 | 4.19 | 3.53 | below the threshold | below the threshold | 3.5 | 4.21 | below the threshold | below the threshold | below the threshold | below the threshold | below the threshold | 4.04 | 4.43 | 3.66 | below the threshold | pKd [21]: 4.16; pKd [22]: 4.06; pKd [23]: 3.95; pKd [24]: below the threshold; pKd [25]: below the threshold; pKd [26]: 4.8; pKd [27]: 4.8
QSLNRMEYIV [JAG1, P78504] | below the threshold | below the threshold | below the threshold | below the threshold | below the threshold | 3.96 | below the threshold | below the threshold | 4.36 | below the threshold | below the threshold | 4.33 | 3.88 | below the threshold | 3.65 | below the threshold | below the threshold | 3.53 | below the threshold | 4.51 | pKd [21]: below the threshold; pKd [22]: 4.73; pKd [23]: 3.83; pKd [24]: below the threshold; pKd [25]: below the threshold; pKd [26]: below the threshold; pKd [27]: below the threshold
GNSVLKSTQF [SLC22A12, Q96S37] | below the threshold | below the threshold | below the threshold | below the threshold | below the threshold | 3.74 | below the threshold | below the threshold | below the threshold | below the threshold | 4.07 | below the threshold | below the threshold | below the threshold | below the threshold | below the threshold | below the threshold | 4.12 | below the threshold | below the threshold | pKd [21]: below the threshold; pKd [22]: below the threshold; pKd [23]: 4.21; pKd [24]: below the threshold; pKd [25]: below the threshold; pKd [26]: below the threshold; pKd [27]: below the threshold
LPHGHSTTRV [NLGN4X, Q8N0W4] | below the threshold | 3.54 | below the threshold | 4.04 | 4.04 | 4.42 | below the threshold | below the threshold | below the threshold | below the threshold | 4.29 | below the threshold | below the threshold | below the threshold | below the threshold | below the threshold | below the threshold | below the threshold | 3.79 | 3.54 | pKd [21]: below the threshold; pKd [22]: 5.19; pKd [23]: below the threshold; pKd [24]: below the threshold; pKd [25]: below the threshold; pKd [26]: 4; pKd [27]: below the threshold
VRNLPESEEL [MYOZ3, Q8TDC0] | below the threshold | below the threshold | below the threshold | 3.83 | below the threshold | below the threshold | below the threshold | below the threshold | below the threshold | below the threshold | 3.74 | below the threshold | below the threshold | below the threshold | below the threshold | below the threshold | below the threshold | below the threshold | below the threshold | below the threshold | pKd [21]: 4.01; pKd [22]: below the threshold; pKd [23]: 3.58; pKd [24]: below the threshold; pKd [25]: below the threshold; pKd [26]: below the threshold; pKd [27]: below the threshold
